Data taken from the domain aggregation screens of Martell et al. (2025).

Test: soluble fraction after stress (log2 fold change); higher = more stays soluble; pooled small domains, quantitative proteomics
Conditions: stress: 75 degC
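Further: 20 min heating vs room temperature control held 20 min.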

First: HMKPVYNKVEIPRGGEYALVLSDGTKVHLNSMSSLRFPVAFTTGKREVELQGEAYFEVSKTGQPFIVNV
Second: HMKQGKGIIVVDGKLMPEDFNVATLSLDEVESITVLKGEKAVALYGEKAKEREVLLITTQKG
The “soluble fraction (log2)” value of the first is lower: 0.219 for the first, 0.427 for the second.

Compared with “HMKQKAEVIFVSKTIMEALSKGVRLTPENLKSETELPIDDFYARLKELIDNGSVVESRENGESYLEAGN”, “HMKQLNKRQDDILSLAEKEGYVSVENLAKTFTVSQQTIRRDINYLSDHEFLVRTHGGAFYSSG” is lower in “soluble fraction (log2)” value: -0.0162 for the first, -0.252 for the second.

Going from “HMKQNNYATKKELNFFVSRLISLLSYRDFFNPIEKKESMINNIEAIFTRSSLTSQELRTLHGIISNLVE” to “HMKQPNSYGSVHKLPGKRRKPWRVRKTSGWLLDEQSGTVKQQYITIGYYATKQEALIALADYNENP”, the “soluble fraction (log2)” value rises from -3.57 to -1.55.

First: HMKQQFTREQIIELMYKAYKKHKKKLNRVEIKKEKALPSYVTIGRYLNETSIKKIWEIVLSEKE
Second: HMKQVEVESVIGKSEEAANSILTKAGLKVNIGYKEDSSKPTDTVLSQDPAPGEKVDEGTTVTIVVNNYKKP
The “soluble fraction (log2)” value of the first is lower: -1.22 for the first, 0.139 for the second.

“HMKRANGTGSVFKLNGKRRNPWVARVTQGFDDKGRQKYVNLGYYKTKREAENELLSYNSNPYDAN” and “HMKREWKDDDPTVPAGWKVAWTTTSDNRAKIAFMSPDKKIFHSRKSALQHMLAAGTYAQSDIEKMTKGL” are within 0.2 log units of each other in “soluble fraction (log2)” value: -0.238 for the first, -0.315 for the second.

Going from “HMKRFSPPSIEEVDSYIREKGYTVDAERFVNFYESKGWYVGKNKMKNWRAAVATWQKEDNKRN” to “HMKRGDAYASEMIARLKEAHLIVMEGTLYPLLTRLKNDGLLSYRWEESTQGPPRKYYSITPVG”, the “soluble fraction (log2)” value rises from -0.226 to 0.151.

First: HMKRITGHLTEKNKKWYAVINLYDTDGKRKEKWQGLNLDANKGNKREAEHRLRQILDQYNTD
Second: HMKRITKKQLSQQLEQFFSSQPGKKLTLKDIFRALHLDTHPLKMLAMDIMEEMAWDDFITKKGENAYQLNT
The “soluble fraction (log2)” value of the first is higher: -0.258 for the first, -0.916 for the second.

First: HMKRKAIDQSWQPDKEAIEILSKAGVNEEFIKEEIPEFILYWSEKGEESDTWNSKFIAQVRRQWAKTQH
Second: HMKRQATLQIGSKRFGMDDLYFKFTVPFEDSEKLGTATIEAYNLSPATRNSIKKGMPIILNAGYEGDI
The “soluble fraction (log2)” value of the first is higher: -0.121 for the first, -0.425 for the second.

First: HMKRTMVEAAMVAKLFNLTVRRIQQLTQDGVLTTELVDKKRRYDLLLTVQKYIAYLQEKVAK
Second: HMKRVVFFNGISWYHRTKELLDDMTTKYGKKGGFATPEEAEKSYWEYEERYKDRQRELQVAYLKN
The “soluble fraction (log2)” value of the first is lower: -3.41 for the first, -1.79 for the second.

Compared with “HMKSDEGEIKKIVEEIISKNASVVEDYKKGKEVALQFLVGQGMKATKGSANPELLKKIILENI”, “HMKSDVVFDITDGTVKAMLKFNRSDVTILNNDGKNYYLFTANGEFTFKYQDGSGEYYEKTVYVDWLEDE” is lower in “soluble fraction (log2)” value: 1.01 for the first, -2.25 for the second.

“HMKSFIWKQYTVQITKKNVKNTNVRIKRDNPHVILMSIPYSATYKAGLLALETPHIRHWLDNYERKLKQ” and “HMKSIEVPNLINMTLRKAKIELIDNEFNLDTVIYEYNPNIREGRVSLQIPESGTILKSGSNISIHISKGIP” are within 0.2 log units of each other in “soluble fraction (log2)” value: -1.45 for the first, -1.6 for the second.

First: HMKSIPKIKWNSTLENIKNFEYQDNFFESKEMYDLLVSFYKYGFVIIKNIPTNNNFIVKFANSIGS
Second: HMKSISMANGNVQLRINGVLASSLEVAALSPEDIKRVEYHDNPGLRYGEGIDIVLDYITIKRT
The “soluble fraction (log2)” value of the first is higher: 0.0519 for the first, -0.754 for the second.

Going from “HMKSISMSKLRHLLQLYVQGRSKKLISEQTGIARNTLKKYIKEFSEAGLSLEALLALSDKELEDLFVK” to “HMKSLPQKLLAYLESQGLTRDEAGEFVKQGLKITSNDVDQIQLLLANTEVIDIKLQEFIAQK”, the “soluble fraction (log2)” value rises from -2.86 to 0.0281.

Compared with “HMKSLVDLEISIVKKDMNYFVLPKINGEPLLMERISASEYKDFQLGKLSKEDIFQKHYPDYSEENIKNGRG”, “HMKSSISKNWNPSKDAIEILTRAGIDQEFLENLIPEFVIYWIERSDVLISYNSKFIEHARLKWAQHTAEIQ” is higher in “soluble fraction (log2)” value: -0.671 for the first, 0.192 for the second.

First: HMKSTPMYATAIVNIRSKAGTDSEILGKLNPSEEISVISSENGWSKVSYNGKEAYISSNYLSNAKP
Second: HMKSVFQPIYEDLLSRIQDGRLLPGMPLPSENALAVQYGTSRPTIRRAIGLLVEKSLVIRQPGIGSIVAS
The “soluble fraction (log2)” value of the first is higher: -0.0974 for the first, -1.32 for the second.

First: HMKTALQENVRAYRLERKWTQQALAEALEVSVGAVSKWESGVSRPELETLMRLAELFGVSTDALLGF
Second: HMKTAWDELNEVIEAYRGQESALIEVLHKAQEIMGYLPRDVQEAIAEGLHVPLNKVYGVVSFYHHFSV
The “soluble fraction (log2)” value of the first is lower: -2.33 for the first, 0.449 for the second.

First: HMKTERTVRVQDQHLHYTLEEKPIKNVNLRIRPDGSVYVSAPFGTSRTLIDDFVASKSKQILAIQQAQSAM
Second: HMKTGIGIVEANGGLRLRSQASTSSDVLSTAHNGDNVVVIRQVGNWYLVNYNLKIGYMHSDYITFKE
The “soluble fraction (log2)” value of the first is higher: -0.277 for the first, -5.04 for the second.

“HMKTGNIIAVSLVWKGKYYMIRMFFPSAARPSRADVQTEIEKVYPGSKLSSFSVSDYEPGQPLLQV” and “HMKTGTTGLIGEIGVVKKALTPEGKVFVHGELWRAVSKTASPEGTLVQVIKINNLVLEVEKV” are within 0.2 log units of each other in “soluble fraction (log2)” value: -3.05 for the first, -2.98 for the second.

Compared with “HMKTILEKDQRLAKYISYLIKRKRLSPEQVIEHLKTDDHGYEKYPKSINTIYAAIDKGLIPSVTRQDM”, “HMKTKMTPELTTVIEAQIQKEWSPEQISGWLKKTHPVSVSHQRIYQHIQADRQQGGTLHQHLRQAK” is higher in “soluble fraction (log2)” value: -0.509 for the first, 0.00699 for the second.

With “HMKTKTFSPGEIVKIQTRDKSWQGTILESHDPEIILLKLTTGYNIGIRENEIINAKVIEKSKKDVKDAE” the “soluble fraction (log2)” value was 0.258.
